Consider one molecule from US20200231670A1 (AGENSYS, published 2020).

One test concerns the target T1, human Nectin-4 (human, UniProt Q96NY8 32-510).
T1 construct: As expressed in human tumour xenograft tissues, human cell lines (T47D, NCI H322M) and Rat1(E) cells engineered to overexpress Nectin-4; Tested as FFPE sections (IHC) or as reduced lysates (Western blot); also called PVRL4; poliovirus receptor-related protein 4
T1 sequence: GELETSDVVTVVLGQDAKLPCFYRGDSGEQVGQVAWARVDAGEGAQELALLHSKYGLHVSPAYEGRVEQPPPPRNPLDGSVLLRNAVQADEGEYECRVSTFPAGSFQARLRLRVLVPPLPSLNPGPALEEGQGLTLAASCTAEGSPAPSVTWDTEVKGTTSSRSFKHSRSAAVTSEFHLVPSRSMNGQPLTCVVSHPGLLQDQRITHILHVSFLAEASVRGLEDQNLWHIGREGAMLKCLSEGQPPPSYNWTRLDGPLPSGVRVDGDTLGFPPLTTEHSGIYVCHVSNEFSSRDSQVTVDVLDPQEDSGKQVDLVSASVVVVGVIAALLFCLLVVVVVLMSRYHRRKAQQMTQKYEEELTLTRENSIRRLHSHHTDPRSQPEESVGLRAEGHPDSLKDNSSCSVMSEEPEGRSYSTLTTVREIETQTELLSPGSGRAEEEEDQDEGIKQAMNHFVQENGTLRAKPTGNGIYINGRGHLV
Put plainly: IHC score, FFPE xenograft AG-OV35, 2.5 µg/mL. The protocol: (§1) IHC staining was performed according to the following exemplary protocols. Briefly, an indirect IHC technique was used to detect Nectin-4 in the IHC assay. The samples were fixed in 10% buffered neutral formalin, processed and embedded into paraffin wax, and prepared as 4 μm tissue sections. After deparaffinization and re-hydration, sections were treated for antigen retrieval. The antigen epitopes in Nectin-4 were retrieved, for example, by application of heat to the tissue sections in an aqueous medium, commonly referred to as a Heat-Induced Epitope Retrieval (HIER) procedure. […] The tissue sections bound with primary antibodies were washed and detected with an enzyme-labeled, e.g. peroxidase-labeled, secondary antibody. […] The stained tissue sections were then scanned, imaged, and evaluated with light microscopy, for example, using an Aperio ScanScope CS (Aperio, Vista, Calif.).
(§2) To assess the level of Nectin-4 expression in the tissue sections by the level of antibody staining, stained tissue sections were assessed, evaluated, categorized, and recorded into different categories or scores according to the intensity of the IHC staining and cancer cell positivity ratio. […] Lack of specific staining was recorded as negative (“0” or interchangeably with as “−”).

The target of test [1] is T2, Nectin-4 fragment V (amino acid residues 1-150 of human Nectin-4) (human, UniProt Q96NY8 32-150).
T2 construct: Expressed in transfected cells and tested as a reduced RIPA lysate on a Western blot; Any tag or membrane anchor of the construct is not described; also called V fragment/domain
T2 sequence: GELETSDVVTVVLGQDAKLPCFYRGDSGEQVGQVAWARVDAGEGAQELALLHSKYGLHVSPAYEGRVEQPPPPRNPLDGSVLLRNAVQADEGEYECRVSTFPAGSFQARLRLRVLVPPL
The test is described as follows: Western blot of cell lysates (FIG. 13). The protocol:
The cells expressing various Nectin-4 fragments were cultured and lysed in RIPA buffer. […] A 1:10000 dilution of a-GAPDH antibody (Chicken pAb, Millipore) was used detect GAPDH as a loading control. Antibodies bound to the protein bands were then detected with either 1:5000 dilution of Goat-anti-Mouse antibody conjugated with IRDye 680 (Odyssey) or 1:5000 Donkey anti-a-Chicken conjugated with IRDye 800 (Odyssey) and visualized in Odyssey system.
On the technique in general: In western blotting, separated proteins are transferred to a membrane and probed.

Test [2] concerns the target T3, recombinant extracellular domain of human Nectin-4 protein (fragment aa 31-346) (human, UniProt Q96NY8 31-346).
T3 construct: Made in E. coli with a 6xHN tag from a pET vector; The primary screen used aa 31-346; The secondary screen also used a 293FT-made fragment, printed as aa 1-346 in one place and aa 1-348 in another, with a myc-his tag; also called 6xHN-tagged Nectin 4 (aa 31-346); Nectin-4 extracellular domain fragment (amino acid residues 31-346)
T3 sequence: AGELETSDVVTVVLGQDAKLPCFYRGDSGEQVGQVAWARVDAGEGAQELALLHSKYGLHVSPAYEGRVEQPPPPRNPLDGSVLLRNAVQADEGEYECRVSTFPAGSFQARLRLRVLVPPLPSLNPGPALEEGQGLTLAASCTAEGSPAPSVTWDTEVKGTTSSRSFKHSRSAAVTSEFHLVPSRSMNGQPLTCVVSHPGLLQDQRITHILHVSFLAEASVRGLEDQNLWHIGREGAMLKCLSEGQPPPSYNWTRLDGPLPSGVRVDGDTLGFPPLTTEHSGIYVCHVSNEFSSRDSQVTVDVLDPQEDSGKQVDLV
The test is described as follows: ELISA. (ELISA stands for enzyme-linked immunosorbent assay.)

For test [3], the target named is T4, Nectin-1 over-expressed by engineered Rat1(E) cells (UniProt Q15223 31-517, limits assumed).
T4 construct: whole, on cells; also called Rat1(E)-Nectin-1; Rat1(E) Nectin1
T4 sequence (looked up): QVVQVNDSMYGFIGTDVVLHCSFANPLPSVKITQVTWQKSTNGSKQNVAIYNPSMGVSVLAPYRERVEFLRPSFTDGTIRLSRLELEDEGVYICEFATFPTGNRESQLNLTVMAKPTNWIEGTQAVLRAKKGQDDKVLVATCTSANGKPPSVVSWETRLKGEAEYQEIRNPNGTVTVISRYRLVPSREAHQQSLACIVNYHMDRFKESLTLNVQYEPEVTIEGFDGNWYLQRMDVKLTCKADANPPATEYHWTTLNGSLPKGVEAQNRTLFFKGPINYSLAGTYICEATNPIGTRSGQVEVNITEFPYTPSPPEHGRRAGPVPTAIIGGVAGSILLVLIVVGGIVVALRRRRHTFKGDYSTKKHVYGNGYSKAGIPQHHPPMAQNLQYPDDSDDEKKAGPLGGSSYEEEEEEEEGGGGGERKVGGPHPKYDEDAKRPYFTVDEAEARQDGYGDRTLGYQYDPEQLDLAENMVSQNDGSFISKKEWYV
The test is described as follows: IHC, FFPE Rat1(E) cells expressing Nectin-1.

Test [4] has as its target T5, Nectin-2 over-expressed by engineered Rat1(E) cells (UniProt Q92692 32-538, limits assumed).
T5 construct: whole, on cells; also called Rat1(E)-Nectin-2; Rat1(E) Nectin2
T5 sequence (looked up): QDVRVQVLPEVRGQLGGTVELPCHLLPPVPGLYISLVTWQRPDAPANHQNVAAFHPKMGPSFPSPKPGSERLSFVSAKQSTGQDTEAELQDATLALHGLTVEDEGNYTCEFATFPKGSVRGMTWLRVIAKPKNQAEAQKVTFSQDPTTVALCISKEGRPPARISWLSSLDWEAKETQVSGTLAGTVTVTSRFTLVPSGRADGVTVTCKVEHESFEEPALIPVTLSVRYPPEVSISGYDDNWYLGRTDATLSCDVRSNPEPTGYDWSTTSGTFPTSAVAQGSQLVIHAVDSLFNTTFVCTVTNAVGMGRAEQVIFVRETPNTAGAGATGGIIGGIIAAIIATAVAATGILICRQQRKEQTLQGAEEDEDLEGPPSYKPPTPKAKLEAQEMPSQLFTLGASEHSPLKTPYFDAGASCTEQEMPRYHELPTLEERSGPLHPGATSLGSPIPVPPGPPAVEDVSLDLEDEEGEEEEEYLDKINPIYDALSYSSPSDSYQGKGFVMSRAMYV
The test is described as follows: IHC, FFPE Rat1(E) cells expressing Nectin-2. The protocol:
as §1, §2

B1: M22-321b41.1 anti-Nectin-4 mouse monoclonal antibody (antibody, mouse IgG2a, kappa, V domains shown)
VH: QVQLQQSGAELARPGASVKLSCKASGYTFTTYWMQWVKQRPGQGLEWIGSIYPGDGDTRYTQKFKGKATLTADKSSSTAYIQLSTLASEDSAVYYCAREYYGLDYWGQGTTLTVSS
VL: DIVMTQAAFSNPVTLGTSASISCRSSKSLLHSNGITYLYWYLQKPGQSPQLLIYHMSNLASGVPDRFTSSGSGTDFTLRISRVEAEDVGVYYCAQNLELPFTFGGGTKLETKR
notes: Mouse IgG2a kappa from hybridoma M22-321b41.1 (ATCC PTA-124245), protein A purified; also called mAb M22-321b41.1; M22-321b1.1
Consider B1, for which the binding result with human Nectin-4 is “binds”; in test [1], “binds”; in test [2] it was “binds”; in test [3] it was “no binding (tested: 2.5 µg/mL)”; in test [4], “no binding (tested: 2.5 µg/mL)”.
